# Measurements: patent publication US20150183867A1 (AbbVie / Abbott, published 2015)
# “And” between values parts separate entries of the source, which are not always exact repeats. Equal entries are not always repeated.
# B1: DVD230 (bispecific antibody, human IgG1, kappa)
# heavy: not shown
# light: QSVLTQPPSVSAAPGQKVTISCSGSSSNIENNHVSWYQQLPGTAPKLLIYDNNKRPSGIPDRFSGSKSGTSATLGITGLQTGDEADYYCETWDTSLSAGRVFGGGTKLTVLGQPKAAPDVVMTQSPLSLPVTPGEPASISCKSSQSLLDSDGKTYLNWLLQKPGQSPQRLIYLVSKLDSGVPDRFSGSGSGTDFTLKISRVEAEDVGVYYCWQGTHFPRTFGQGTKVEIKRTVAAPSVFIFPPSDEQLKSGTASVVCLLNNFYPREAKVQWKVDNALQSGNSQESVTEQDSKDSTYSLSSTLTLSKADYEKHKVYACEVTHQGLSSPVTKSFNRGEC
# notes: DVD-Ig; also called VD230H/VD230L
# B2: AB059 (antibody, human IgG1, kappa, V domains shown)
# VH: EVQLVESGGGLVQPGSSLKLSCVASGFTFSNYGMNWIRQAPKKGLEWIGMIYYDSSEKHYADSVKGRFTISRDNSKNTLYLEMNSLRSEDTAIYYCAKGTTPDYWGQGVMVTVSS
# VL: DVVLTQTPVSLSVTLGDQASMSCRSSQSLEYSDGYTFLEWFLQKPGQSPQLLIYEVSNRFSGVPDRFIGSGSGTDFTLKISRVEPEDLGVYYCFQATHDPLTFGSGTKLEIKR
# notes: also called RGMa parent antibody; RGMA parent antibody
# B3: DVD294 (bispecific antibody, human IgG1, kappa)
# heavy: not shown
# light: DVVMTQSPLSLPVTPGEPASISCKSSQSLLDSDGKTYLNWLLQKPGQSPQRLIYLVSKLDSGVPDRFSGSGSGTDFTLKISRVEAEDVGVYYCWQGTHFPRTFGQGTKVEIKRTVAAPDIVMTQSQKFMSTSVGDRVSITCKASQNVGTAVAWYQQRPGQSPKLLIFSASNRYTGVPDRFTGSGSGTDFTLTLSNMQPEDLADYFCQQYSSYPLTFGVGTKLELKRTVAAPSVFIFPPSDEQLKSGTASVVCLLNNFYPREAKVQWKVDNALQSGNSQESVTEQDSKDSTYSLSSTLTLSKADYEKHKVYACEVTHQGLSSPVTKSFNRGEC
# notes: DVD-Ig; also called VD294H/VD294L
# B4: DVD233 (bispecific antibody, human IgG1, kappa)
# heavy: not shown
# light: DVVMTQSPLSLPVTPGEPASISCKSSQSLLDSDGKTYLNWLLQKPGQSPQRLIYLVSKLDSGVPDRFSGSGSGTDFTLKISRVEAEDVGVYYCWQGTHFPRTFGQGTKVEIKRTVAAPQIVLIQSPAIMSASPGEKVTMTCSASSSVSYMYWYQQKPGSSPRLLIYDTSNLASGVPVRFSGSGSGTSYSLTISRMEAEDAATYYCQQWSGYPYTFGGGTKLEIKRTVAAPSVFIFPPSDEQLKSGTASVVCLLNNFYPREAKVQWKVDNALQSGNSQESVTEQDSKDSTYSLSSTLTLSKADYEKHKVYACEVTHQGLSSPVTKSFNRGEC
# notes: DVD-Ig; also called VD233H/VD233L
# B5: DVD232 (bispecific antibody, human IgG1, kappa)
# heavy: not shown
# light: EIVMTQSPATLSVSPGERATLSCRASESISSNLAWYQQKPGQAPRLFIYTASTRATDIPARFSGSGSGTEFTLTISSLQSEDFAVYYCQQYNNWPSITFGQGTRLEIKRTVAAPDVVMTQSPLSLPVTPGEPASISCKSSQSLLDSDGKTYLNWLLQKPGQSPQRLIYLVSKLDSGVPDRFSGSGSGTDFTLKISRVEAEDVGVYYCWQGTHFPRTFGQGTKVEIKRTVAAPSVFIFPPSDEQLKSGTASVVCLLNNFYPREAKVQWKVDNALQSGNSQESVTEQDSKDSTYSLSSTLTLSKADYEKHKVYACEVTHQGLSSPVTKSFNRGEC
# notes: DVD-Ig; also called VD232H/VD232L
# B6: AB032 (antibody, human IgG1, kappa, V domains shown)
# VH: QVQLVESGGGVVQPGRSLRLSCAASGFTFSVYGMNWVRQAPGKGLEWVAIIWYDGDNQYYADSVKGRFTISRDNSKNTLYLQMNGLRAEDTAVYYCARDLRTGPFDYWGQGTLVTVSS
# VL: EIVLTQSPDFQSVTPKEKVTITCRASQSIGSSLHWYQQKPDQSPKLLIKYASQSFSGVPSRFSGSGSGTDFTLTINSLEAEDAAAYYCHQSSSLPFTFGPGTKVDIKR
# notes: also called IL-1β parent antibody
# B7: AB060 (antibody, human IgG1, kappa, V domains shown)
# VH: QIQLVQSGPELKKPGETVKISCKASGYTFTNFGMNWVKQAPGKGLKWMGYINTNTGESIYSEEFKGRFAFSLETSASTAYLQINNLKNEDTATYFCARSRMVTAYGMDYWGQGTSVTVSS
# VL: DIVMTQSQKFMSTSVGDRVSITCKASQNVGTAVAWYQQRPGQSPKLLIFSASNRYTGVPDRFTGSGSGTDFTLTLSNMQPEDLADYFCQQYSSYPLTFGVGTKLELKR
# B8: DVD293 (bispecific antibody, human IgG1, kappa)
# heavy: not shown
# light: DIVMTQSQKFMSTSVGDRVSITCKASQNVGTAVAWYQQRPGQSPKLLIFSASNRYTGVPDRFTGSGSGTDFTLTLSNMQPEDLADYFCQQYSSYPLTFGVGTKLELKRTVAAPDVVMTQSPLSLPVTPGEPASISCKSSQSLLDSDGKTYLNWLLQKPGQSPQRLIYLVSKLDSGVPDRFSGSGSGTDFTLKISRVEAEDVGVYYCWQGTHFPRTFGQGTKVEIKRTVAAPSVFIFPPSDEQLKSGTASVVCLLNNFYPREAKVQWKVDNALQSGNSQESVTEQDSKDSTYSLSSTLTLSKADYEKHKVYACEVTHQGLSSPVTKSFNRGEC
# notes: DVD-Ig; also called VD293H/VD293L
# Assays:
# Aβ1-42 [1] = target: T1, Aβ1-42 (UniProt P05067 672-713); experiment: Aβ 1-42 ELISA, peptide on plate; C-terminal VD
# T1 construct: domain: Aβ1-42; Aβ 1-42 is a part of it; also called A beta
# Description: (§1) ELISA assays were performed to screen for antibodies that bind a desired target antigen as follows. Maxisorb NUNC Immuno plates were coated with 100 μL/well of 1 μg/ml of Aβ1-42 diluted in coating buffer overnight at 6° C. Plates were washed three times with PBS containing 0.02% Tween 20. Blocking solution was prepared by dissolving the blocking reagent for ELISA (Roche) in 100 mL water and then diluted further 1:10 prior to use. Plates were blocked by the addition of 265 μL/well blocking solution for 2 hours at room temperature. Plates were washed three times after blocking with PBS containing 0.02% Tween 20.
# (§2) Antibody or DVD-Igs were diluted to 100 ng/μL in PBST+0.5% BSA and serially diluted 1:3. One hundred microliters of antibody or DVD-Ig preparations was added to the plate and incubated for 2 hour at room temperature. Wells were washed three times with PBS containing 0.02% Tween 20.
# (§3) One hundred microliters of TMB solution was added to each well and incubated for 10 minutes. TMB solution was prepared by mixing 20 mL 100 mM natrium-acetate pH4.9 with 200 μL TMB solution (Roche #92817060) and 29.5 μL 3% H₂O₂. The reaction was stopped by the addition of 50 μL 1N sulphuric acid. Plates were read spectrophotometrically at a wavelength of 450 nm.
# IGF-I = target: T2, IGF-I (UniProt P05019 49-118); experiment: direct bind ELISA, antigen on plate; N-terminal VD
# T2 construct: Bought reagent; also called IGF1; IGF-1
# Description: (§4) Enzyme Linked Immunosorbent Assays to screen for antibodies that bind a desired target antigen were performed as follows. High bind ELISA plates (Corning Costar #3369, Acton, Mass.) were coated with 100 μL/well of 10 μg/ml of desired target antigen (R&D Systems, Minneapolis, Minn.) or desired target antigen extra-cellular domain/FC fusion protein (R&D Systems, Minneapolis, Minn.) or monoclonal mouse anti-polyHistidine antibody (R&D Systems # MAB050, Minneapolis, Minn.) in phosphate buffered saline (10×PBS, Abbott Bioresearch Center, Media Prep# MPS-073, Worcester, Mass.) overnight at 4° C. Plates were washed four times with PBS containing 0.02% Tween 20. Plates were blocked by the addition of 300 μL/well blocking solution (non-fat dry milk powder, various retail suppliers, diluted to 2% in PBS) for 1/2 hour at room temperature. Plates were washed four times after blocking with PBS containing 0.02% Tween 20.
# (§5) One hundred microliters of antibody or DVD-Ig preparations diluted in blocking solution as described above was added to the desired target antigen plate or desired target antigen/FC fusion plate or the anti-polyHistidine antibody/His tagged desired target antigen plate prepared as described above and incubated for 1 hour at room temperature. Wells were washed four times with PBS containing 0.02% Tween 20.
# (§6) One hundred microliters of 10 ng/mL goat anti-human IgG-FC specific HRP conjugated antibody (Southern Biotech #2040-05, Birmingham, Ala.) was added to each well of the desired target antigen plate or anti-polyHistidine antibody/Histidine tagged desired target antigen plate. Alternatively, one hundred microliters of 10 ng/mL goat anti-human IgG-kappa light chain specific HRP conjugated antibody (Southern Biotech #2060-05 Birmingham, Ala.) was added to each well of the desired target antigen/FC fusion plate and incubated for 1 hour at room temperature. Plates were washed 4 times with PBS containing 0.02% Tween 20.
# IGF-II = target: T3, IGF-II (UniProt P01344 25-91); experiment: direct bind ELISA, antigen on plate; N-terminal VD
# T3 construct: Bought reagent; also called IGF2; IGF-2
# Description: as §4, §5, §6
# [2] = target: T4, Repulsive Guidence Molecule A (UniProt Q96B86 48-422, limits assumed); experiment: SPR (Biacore), antibody captured; parent antibody
# T4 construct: Bought reagent for the ELISA; also called RGM-A; RGMa
# T4 sequence (looked up): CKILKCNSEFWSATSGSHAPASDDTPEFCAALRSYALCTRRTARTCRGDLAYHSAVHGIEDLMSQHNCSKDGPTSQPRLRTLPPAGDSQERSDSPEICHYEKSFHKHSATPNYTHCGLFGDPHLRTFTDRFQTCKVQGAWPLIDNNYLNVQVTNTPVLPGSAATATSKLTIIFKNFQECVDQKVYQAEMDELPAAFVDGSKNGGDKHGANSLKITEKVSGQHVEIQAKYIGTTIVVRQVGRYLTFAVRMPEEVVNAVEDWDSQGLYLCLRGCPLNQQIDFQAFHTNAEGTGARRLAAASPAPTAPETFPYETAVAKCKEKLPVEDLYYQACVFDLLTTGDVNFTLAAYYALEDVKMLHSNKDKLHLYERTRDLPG
# Description: The BIACORE assay (Biacore, Inc, Piscataway, N.J.) determines the affinity of antibodies or DVD-Ig with kinetic measurements of on-rate and off-rate constants. Binding of antibodies or DVD-Ig to a target antigen (for example, a purified recombinant target antigen) is determined by surface plasmon resonance-based measurements with a Biacore® 1000 or 3000 instrument (Biacore® AB, Uppsala, Sweden) using running HBS-EP (10 mM HEPES [pH 7.4], 150 mM NaCl, 3 mM EDTA, and 0.005% surfactant P20) at 25° C. All chemicals are obtained from Biacore® AB (Uppsala, Sweden) or otherwise from a different source as described in the text. For example, approximately 5000 RU of goat anti-mouse IgG, (Fcγ), fragment specific polyclonal antibody (Pierce Biotechnology Inc, Rockford, Ill.) diluted in 10 mM sodium acetate (pH 4.5) is directly immobilized across a CMS research grade biosensor chip using a standard amine coupling kit according to manufacturer's instructions and procedures at 25 μg/ml. Unreacted moieties on the biosensor surface are blocked with ethanolamine. Modified carboxymethyl dextran surface in flowcell 2 and 4 is used as a reaction surface. Unmodified carboxymethyl dextran without goat anti-mouse IgG in flow cell 1 and 3 is used as the reference surface. For kinetic analysis, rate equations derived from the 1:1 Langmuir binding model are fitted simultaneously to association and dissociation phases of all eight injections (using global fit analysis) with the use of Biaevaluation 4.0.1 software. Purified antibodies or DVD-Ig are diluted in HEPES-buffered saline for capture across goat anti-mouse IgG specific reaction surfaces. Antibodies or DVD-Ig to be captured as a ligand (25 μg/ml) are injected over reaction matrices at a flow rate of 5 μl/min. […] The equilibrium dissociation constant (M) of the reaction between antibodies or DVD-Igs and the target antigen is then calculated from the kinetic rate constants by the following formula: KD=koff/kₒₙ. Binding is recorded as a function of time and kinetic rate constants are calculated.
# [3] = target: T4, Repulsive Guidence Molecule A; experiment: direct bind ELISA, antigen on plate; parent antibody
# Description: as §4, §5, §6
# Aβ1-42 [4] = target: T1, Aβ1-42; experiment: Aβ 1-42 ELISA, peptide on plate; N-terminal VD
# Description: as §1, §2, §3
# RAGE/FC Chimera [5] = target: T5, RAGE/FC Chimera (UniProt Q15109 23-342); experiment: direct bind ELISA, antigen on plate; C-terminal VD
# T5 construct: extracellular domain; Bought reagent; not shown: Fc region of the bought chimera
# T5 sequence (Q15109 23-342, change not shown): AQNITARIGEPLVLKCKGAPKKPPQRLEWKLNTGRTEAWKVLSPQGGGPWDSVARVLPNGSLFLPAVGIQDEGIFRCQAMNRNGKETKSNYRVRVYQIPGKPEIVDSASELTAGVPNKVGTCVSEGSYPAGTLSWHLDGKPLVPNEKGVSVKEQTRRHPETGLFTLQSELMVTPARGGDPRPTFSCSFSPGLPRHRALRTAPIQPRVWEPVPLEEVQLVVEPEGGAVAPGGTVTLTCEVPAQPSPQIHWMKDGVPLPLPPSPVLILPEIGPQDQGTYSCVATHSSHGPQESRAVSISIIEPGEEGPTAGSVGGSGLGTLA
# Description: as §4, §5, §6
# IL-18 = target: T6, IL-18 (UniProt Q14116 37-193, limits assumed); experiment: direct bind ELISA, antigen on plate; N-terminal VD
# T6 construct: Bought reagent
# Description: as §4, §5, §6
# Recombinant Human IL-1β = target: T7, Recombinant Human IL-1β (human, UniProt P01584 117-269); experiment: direct bind ELISA, antigen on plate; parent antibody
# T7 construct: Bought reagent; also called IL-1B
# Description: as §4, §5, §6
# RAGE/FC Chimera [6] = target: T5, RAGE/FC Chimera; experiment: as above
# Description: as §4, §5, §6
# RAGE/FC Chimera [7] = target: T5, RAGE/FC Chimera; experiment: direct bind ELISA, antigen on plate; N-terminal VD
# Description: as §4, §5, §6
binder,measurement,setting,value
B1,EC50,Aβ1-42 [1],0.039 nM
same,EC50,IGF-I,4.84 nM
same,EC50,IGF-II,2.44 nM
B2,Kd,[2],0.64 nM
same,koff,[2],0.000609 s⁻¹
same,kon,[2],952000 M⁻¹ s⁻¹
same,EC50,[3],0.13 nM
B3,EC50,Aβ1-42 [4],0.014 nM
same,EC50,RAGE/FC Chimera [5],1.53 nM
B4,EC50,Aβ1-42 [4],0.013 nM
B5,EC50,Aβ1-42 [1],0.048 nM
same,EC50,IL-18,0.68 nM
B6,EC50,Recombinant Human IL-1β,5.27 nM
B7,EC50,RAGE/FC Chimera [6],1.69 nM and 0.64 nM
B8,EC50,Aβ1-42 [1],0.048 nM
same,EC50,RAGE/FC Chimera [7],7.32 nM
